Among the data in publication PMC2990805 (2012) are Kd values, retold here.

This test addresses T1, Cyt1Aa (Bacillus thuringiensis subsp. …, UniProt P0A382).
T1 chain: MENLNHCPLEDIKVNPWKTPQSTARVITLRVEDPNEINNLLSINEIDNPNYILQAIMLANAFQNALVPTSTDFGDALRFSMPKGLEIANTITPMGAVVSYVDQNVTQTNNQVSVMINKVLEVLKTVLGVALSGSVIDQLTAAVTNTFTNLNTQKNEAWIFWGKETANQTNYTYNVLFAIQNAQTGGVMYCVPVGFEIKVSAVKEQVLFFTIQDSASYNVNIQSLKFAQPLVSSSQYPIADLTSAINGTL
The experiment in a line: ELISA. For orientation: In an ELISA, binding on a coated surface is turned into a signal by an enzyme label.

B1: Cry4Ba (protein)
chain: NSGYPLANDLQGSMKNTNYKDWLAMCENNQQYGVNPAAINSSSVSTALKVAGAILKFVNPPAGTVLTVLSAVLPILWPTNTPTPERVWNDFMTNTGNLIDQTVTAYVRTDANAKMTVVKDYLDQYTTKFNTWKREPNNQSYRTAVITQFNLTSAKLRETAVYFSNLVGYELLLLPIYAQVANFNLLLIRDGLINAQEWSLARSAGDQLYNTMVQYTKEYIAHSITWYNKGLDVLRNKSNGQWITFNDYKREMTIQVLDILALFASYDPRRYPADKIDNTKLSKTEFTREIYTALVESPSSKSIAALEAALTRDVHLFTWLKRVDFWTNTIYQDLRFLSANKIGFSYTNSSAMQESGIYGSSGFGSNLTHQIQLNSNVYKTSITDTSSPSNRVTKMDFYKIDGTLASYNSNITPTPEGLRTTFFGFSTNENTPNQPTVNDYTHILSYIKTDVIDYNSNRVSFAWTHKIVDPNNQIYTDAITQVPAVKSNFLNATAKVIKGPGHTGGDLVALTSNGTLSGRMEIQCKTSIFNDPTRSYGLRIRYAANSPIVLNVSYVLQGVSRGTTISTESTFSRPNNIIPTDLKYEEFRYKDPFDAIVPMRLSSNQLITIAIQPLNMTSNNQVIIDRIEIIPITQSVLDETENQNLESEREVVNALFTNDAKDALNIGTTDYDIDQAANLVECISEELYPKEKMLLLDEVKNAKQLSQSRNVLQNGDFESATLGWTTSDNITIQEDDPIFKGHYLHMSGARDIDGTIFPTYIFQKIDESKLKPYTRYLVRGFVGSSKDVELVVSRYGEEIDAIMNVPADLNYLYPSTFDCEGSNRCETSAVPANIGNTSDMLYSCQYDTGKKHVVCQDSHQFSFTIDTGALDTNENIGVWVMFKISSPDGYASLDNLEVIEEGPIDGEALSRVKHMEKKWNDQMEAKRSETQQAYDVAKQAIDALFTNVQDEALQFDTTLAQIQYAEYLVQSIPYVYNDWLSDVPGMNYDIYVELDARVAQARYLYDTRNIIKNGDFTQGVMGWHVTGNADVQQIDGVSVLVLSNWSAGVSQNVHLQHNHGYVLRVIAKKEGPGNGYVTLMDCEENQEKLTFTSCEEGYITKTVDVFPDTDRVRIEIGETEGSFYIESIELICMNE
modifications: trypsin-activated Cry4Ba, proteinase K-activated Cyt1Aa
The molecule B1 yielded a Kd of 47 nM.

Usually Kd stands for the constant that tells how readily two partners part at equilibrium.
